Values quoted from earlier work, collected in US10543287.

Legend:
[1] = tested on: rag2 ZFN pair (FokI) (synthetic construct); assay: cell_activity; settings: CITED ref 58 somatic mutation rate in zebrafish embryos, mutant lines obtained here (Table 1), half-sites only highlighted in figure
[2] = tested on: jak3 ZFN pair (FokI) (synthetic construct); assay: cell_activity; settings: CITED ref 58 somatic mutation rate in zebrafish embryos, mutant lines obtained here (Table 1), half-sites only highlighted in figure

Row | Sequence | activity [1] [%] | activity [2] [%]
1 | CCATGATCTTCTGCTCCAGGGGTGAAGGTGGACACTG (double strand) [rag2 ZFN target] | 7.7 | 
2 | TATTTCTGCGCAGAAGTGGCCCCACCAAGCCTGCTGGAGGACATACAGAATTA (double strand) [jak3 ZFN target] |  | 1.4
